± gives the uncertainty stated by the source.
Test: self-splicing fitness, log relative to wild type (ln ratio); higher = more splicing; Tetrahymena group I intron in knt gene, E. coli kanamycin selection, DiMSum; sequences stand for … in CUCUCU…GGAGGGAAAAGUUAUCAGGCAUGCACCUGGUAGCUAGUCUUUAAACCAAUAGAUUGCAUCGGUUUAAAAGGCAAGACCGUCAAAUUGCGGGAAAGGGGUCAACAGCCGUUCAGUACCAAGUCUCAGGGGAAACUUUGAGAUGGCCUUGCAAAGGGUAUGGUAAUAAGCUGACGGACAUGGUCCUAACCACGCAGCCAAGUCCUAAGUCAACAGAUCUUCUGUUGAUAUGGAUGCAGUUCACAGACUAAAUGUCGGUCGGGGAAGAUGUAUUCUUCUCAUAAGAUAUAGUCGGACCUCUCCUUAAUGGGAGCUAGCGGAUGAAGUGAUGCAACACUGGAGCCGCUGGGAACUAAUUUGUAUGCGAAAGUAUAUUGAUUAGUUUUGGAGUACUCGUGGUCG
Procedure, shortened: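 Six replicate transformations of E. coli BL21(DE3) with a pET-22b(+) library were grown overnight at 37°C or 30°C. The library randomised all eight P1ex-region intron nucleotides, the intron lying in the knt kanamycin-resistance gene, and plates were LB agar with or without 25 μg/mL kanamycin plus 100 μg/mL carbenicillin, 50 μM IPTG and 0.2% rhamnose. Pooled colonies were amplicon-sequenced on an Illumina HiSeq 2500, and fitness is the DiMSum error-weighted combination of wild-type-normalised replicate fold changes, kanamycin versus none.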

Sequence	self-splicing fitness (ln) (30 °C)	self-splicing fitness (ln) (37 °C)
CCCCAGCAAUAUUACGACUC	-2.97 ± 0.12	-2.11 ± 0.21
CCCCAGCAAUAUUACGAGUG	-3.21 ± 0.12	-2.92 ± 0.14
CCCCAGCAAUAUUACGAGUU	-4.17 ± 0.18	-2.31 ± 0.17
CCCCAGCAAUAUUACGAUUC	-3.81 ± 0.2	-2.46 ± 0.23
CCCCAGCAAUAUUACGCCUU	-3 ± 0.22	-2.4 ± 0.37
CCCCAGCAAUAUUACGCGAG	-3.18 ± 0.15	-3.14 ± 0.31
CCCCAGCAAUAUUACGGAAU	-3.31 ± 0.13	-2.4 ± 0.2
CCCCAGCAAUAUUACGGAGU	-4.02 ± 0.15	-2.75 ± 0.15
CCCCAGCAAUAUUACGGAUU	-4.3 ± 0.16	-2.37 ± 0.13
CCCCAGCAAUAUUACGGCCG	-3.62 ± 0.17	-1.88 ± 0.16
CCCCAGCAAUAUUACGGCUG	-4.06 ± 0.19	-1.99 ± 0.15
CCCCAGCAAUAUUACGGGGU	-3.9 ± 0.12	-2.54 ± 0.11
CCCCAGCAAUAUUACGGGUG	-3.8 ± 0.12	-2.91 ± 0.13
CCCCAGCAAUAUUACGGUAG	-2 ± 0.065	-1.31 ± 0.097
CCCCAGCAAUAUUACGGUGU	-3.26 ± 0.11	-1.94 ± 0.1
CCCCAGCAAUAUUACGGUUU	-3.85 ± 0.16	-3.12 ± 0.21
CCCCAGCAAUAUUACGUCAC	-4.02 ± 0.23	-2.93 ± 0.26
CCCCAGCAAUAUUACGUCCA	-3.34 ± 0.19	-3.2 ± 0.28
CCCCAGCAAUAUUACGUCUC	-3.78 ± 0.16	-3.61 ± 0.19
CCCCAGCAAUAUUACGUGCU	-3.34 ± 0.14	-2.47 ± 0.16
CCCCAGCAAUAUUACGUUAG	-3.99 ± 0.15	-2.97 ± 0.15
CCCCAGCAAUAUUACGUUGA	-4.14 ± 0.13	-2.79 ± 0.12
CCCGAGCAAUAUUACGAAAC	–	-0.43 ± 0.4
CCCGAGCAAUAUUACGACUG	-4.27 ± 0.22	-2.56 ± 0.2

Sequence	self-splicing fitness (ln) (30 °C)	self-splicing fitness (ln) (37 °C)
CCCGAGCAAUAUUACGAGAU	-3.49 ± 0.21	-2.59 ± 0.3
CCCGAGCAAUAUUACGAGGU	-3.75 ± 0.15	-3.11 ± 0.17
CCCGAGCAAUAUUACGAUUG	-2.74 ± 0.18	-2.63 ± 0.22
CCCGAGCAAUAUUACGAUUU	-3.84 ± 0.23	-2.15 ± 0.2
CCCGAGCAAUAUUACGCACC	-3.46 ± 0.28	-2.35 ± 0.4
CCCGAGCAAUAUUACGCACG	–	-3.26 ± 0.47
CCCGAGCAAUAUUACGCAGA	-3.96 ± 0.25	-2.71 ± 0.33
CCCGAGCAAUAUUACGCGGA	-3.21 ± 0.28	-2.23 ± 0.2
CCCGAGCAAUAUUACGCUAG	-3.59 ± 0.37	-1.73 ± 0.36
CCCGAGCAAUAUUACGCUGG	-3.13 ± 0.16	-2.68 ± 0.26
CCCGAGCAAUAUUACGCUUG	–	-2.06 ± 0.33
CCCGAGCAAUAUUACGGAAA	-2.2 ± 0.32	-1.57 ± 0.33
CCCGAGCAAUAUUACGGCAA	-3.03 ± 0.35	-2.32 ± 0.22
CCCGAGCAAUAUUACGGCAG	-2.53 ± 0.29	-2.65 ± 0.44
CCCGAGCAAUAUUACGGCUG	-4.35 ± 0.39	-2.72 ± 0.33
CCCGAGCAAUAUUACGUGGA	-3.08 ± 0.21	-2.81 ± 0.22
CCCGAGCAAUAUUACGUUCC	-2.86 ± 0.4	–
CCCGAGCAAUAUUACGUUGC	-3.75 ± 0.12	-2.71 ± 0.16
CCCGAGCAAUAUUACGUUUG	-4.07 ± 0.23	-2.07 ± 0.14
CCCUAGCAAUAUUACGACGU	-3.83 ± 0.29	-3.29 ± 0.47
CCCUAGCAAUAUUACGACUG	-4.39 ± 0.36	-2.92 ± 0.27
CCCUAGCAAUAUUACGAGGA	-1.66 ± 0.074	-0.53 ± 0.075
CCCUAGCAAUAUUACGAUAU	-2.92 ± 0.15	-2.97 ± 0.27
CCCUAGCAAUAUUACGAUGA	-3.24 ± 0.18	-2.35 ± 0.2

— the supplement of paper PMC7877785
